41 sequences from the nanobody polyreactivity screen of Harvey et al. (2022) can be followed below.

This series in a line: yeast display, Sf9 membrane polyspecificity reagent, FACS + sequencing; frameworks hold sequencing errors. The method, boiled down: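 After 36–48 hours of galactose induction, yeast (Saccharomyces cerevisiae BJ5465) displaying a synthetic nanobody library were stained at 4 °C for 1 hour with 10% biotinylated, detergent-solubilized Sf9 membrane reagent. Streptavidin microbeads enriched the stained cells before FACS sorting into low and high (top ~1%) gates on anti-HA and streptavidin fluorescence. Each clone's polyreactivity label reflects its gate of origin.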
“QVQLVESGGGLVQAGGSLRLSCAASGSIFYSNAMGWYRQAPGKERELVAAISDGGTSTYYADSVKGRFTISRDNAKNTVYFQMNSLKPEDTAVYYCAAESTLQDWNWYKYYYWGQGTQVTVSS”: the “polyreactivity (PSR sort gate)” value is reported as “low polyreactivity”.
For “QVQLVESGGGLVQAGGSLSLSCAASGFTFGRNAMGWYRQAPGKERELVASIDWSGGSTYYADSVKGRFTISRDNAKNTVYLQMNSLKPEDTAVYYCAVGPNSVGNRSYGFDYWGQGTQVTVSS”, the “polyreactivity (PSR sort gate)” value is reported as “low polyreactivity”.
With “QVQLVESGRGLVQAGGSLRLSCAASGSTFGGYAMGWYRQAPGKERELVAAISGSGVRTYYADSVKGRFTISRDNAKNTVYLQMNSLKPEDTAVYYCAKRVRYPGDRYYYWGQGTQVTLSS”, the “polyreactivity (PSR sort gate)” value was “high polyreactivity”.
As for “QVQLVESGGGLVQAGGSLRLSCAASGSIFGPNAMRWYRQAPGKERELVAAINGGTGTFYADSLKGRFTISRDNAKNTVYLQMNSLKPEDTAVYYCAADYGTHYFVRYYYWGQGTQVTVSS”, the “polyreactivity (PSR sort gate)” value was “high polyreactivity”.
Consider “QVQLVESGGGIVQAGGSLRLSCAASGFTLYYYAMGWYRQAPGKERELVAAITSSGTSTYYADSVKGRFTISRDNAKNTVYVQMNSLKPEDTAVYYCAAVSKIYHYRAVRLDDYWGQGTQVTVSS”, for which the “polyreactivity (PSR sort gate)” value is listed as “low polyreactivity”.
In the case of “HVQLVESGGGLVQAGGSLRLSCAASGRTFLGNAMGWYRQAPGKERQLVAVITGSGARTYYADSEKGRFTISRDNAKNTVYLQMNSLKPEDTAVYYCAAAGFSGQYRSYYWGQGTQVTVSS”, the “polyreactivity (PSR sort gate)” value is “high polyreactivity”.
In the case of “QVQLVESGGGLVQAGGSLRLSCAASGSIFAAYAMGGYRQAPGKERELVATIRWTSGSTYYADSVKGRFTISRDNAKNTVYLQMNSLKPEDTAVFYCAAQKNKYYWPRFGYWGQGTQVTGSS” it was “high polyreactivity”.
“QVQLVESGGGFVQAGGSLRLTCAASGYIFANYGMGWYRQAPGKQMELVAAISGSGGSTYYADSVKGRFTISRDNAKNTVYLQMNSLKPQDTAVYYCAALSNWWSYFTCYDGSDGFDYWVQGTQVTVSS”: the “polyreactivity (PSR sort gate)” value is listed as “low polyreactivity”.
In the case of “QVKLVDSGGGLVQAGGSLRLSCAASGRIIRINAMGWYRQAPGKERELVAAITRGGTTYADSVKGRFTISRDNAKNTVYLQMNSLKPEDTAVYYCNARTGRSPTGFRYWGQGTQVTVSS” it was “high polyreactivity”; in that of “QVQLVESGGGLVQAGGSLRLSCAASGRIFWYYVMGWSRQAPGKEREFVASISSGGSTYYADSVKGRFTISRDNAKNTVYLQMNSLKPEDTAVYYCNAYVYGQRVWYDYWGQGTQVTVSS”, “high polyreactivity”; in that of “QVQLGESGGVLVQEGGSLRLSSAASGSILSKYAIGWYRQAPGKERELVAVITSNSGRKYYADYLKGRFTISRDNAKNTVYLQMNSLKPEDTAVYYCAAQRRSSQNYYWGQGTQVTVSS”, “high polyreactivity”.
For the sequence “QVQLVESGGGLVQAGGSLRLSCAASGRTLYGYTMGWYRQAPGQEREVVAAINAGGGSTYYADSVKGRFTSSRDNAKNTVYLQMNSLKPEDTAVYSCNARVRVRLGRNWSSYYYWGQGTQVTVSS”, the “polyreactivity (PSR sort gate)” value was “high polyreactivity”.
For the sequence “QVQLVESGGGLVQAGGSLRLSCAASGIIFRGNVMGWYRQAPGKERELVAAISGSGGRTYYADSVKGRFTISRDNAKNTVYLQMNSLKPEVTAVYYCNADKAIRYDYWGQGPQVTVSS”, the “polyreactivity (PSR sort gate)” value is reported as “high polyreactivity”.
Turning to “QVQLVESGGGLVQAGGSLRLSCAASGSIFNYYAMGWYRQEPGKERELVAAISSGGSTYYADSVKGRFTISRDNAKNTVYLQMNSLKPEDTAVYYCAVDSPYLDEYDYWGQGTQVTVSS”, the “polyreactivity (PSR sort gate)” value is given as “high polyreactivity”.
Consider “QVQLVESGGGLVQAGGSLRLSCAASGRIFSYYAMGWYRQAPGKERELVAAISWNGGSTYYADSVKGRFTISRDNAKNTVYLQMNSLKPEDTAVYYCIRLGYRTGYERDYWGQGTQVTVSS”, for which the “polyreactivity (PSR sort gate)” value is “high polyreactivity”.
As to “QVQLVESGGGLVQAGGSLRLSCAASGRIFGYYAMGWYRQAPGKERELVAAITINGGRTYYADSVKGRFTISRDNAKNTVYLQMNSLKPEDTAVYYCTATSRYNRLGYWGQGTLVTVSS”, the “polyreactivity (PSR sort gate)” value is listed as “high polyreactivity”.
Regarding “QVQLVESGGGLVQAGGSLRLSCAPSVRIFGTNAMGWYRQAPGTERELVADITSGGSTNYADSVKGRFTISRDNAKNTVYLQMISLKPEDTAVYYCAADVIGDLRWYRDEYWGQGTQVTVSS”, the “polyreactivity (PSR sort gate)” value is listed as “low polyreactivity”.
With “QVQLVESGGGLVQAGGSLRLSCAASGRILYPYAMGWYRQAPGKERELVAAITFRGGNTYYADSVKGRFTISRDNAKNTVYLQMNSLKPEDTAVYYCAKRGGYWHKFDYWGQGTQVTVSS”, the “polyreactivity (PSR sort gate)” value is “high polyreactivity”.
On to “QVQLVESGGGLVQAGGSLRLSCAASGSIVDWYVMGWYRQAPGKERELVAAITSTGSTYYADSVKGRFTISRDNAKNTVYLQMNSLKPEDTAVYYCATSFYVYPTYYIMDYWGQGTQVTVSS”, for which the “polyreactivity (PSR sort gate)” value is reported as “low polyreactivity”.
Regarding “QVNHVESGGGLVQAGGSLRLTCAASGRTFSRYVMGWYRQSPGKERELVAAISRTGGRTYYADSVKGRFTISRDNAKNSVYLQMNSLNPEDTAVYYCYAGTVLISTYDYWGQGTQVTLSS”, the “polyreactivity (PSR sort gate)” value is reported as “high polyreactivity”.
In the case of “QVQLVESGGGLVQAGGSLRLSCAASGIIFRYYAMGWYRQAPGKERELVAAISRSGARTYYADTVKGRFTISRDNAKNTVFLQRNSLKPEDTAVYYCATDPTSGRFYYWGQGTQVTVSS”, the “polyreactivity (PSR sort gate)” value is reported as “high polyreactivity”.
With “QVQLVESGGGLVQAGGSLRLSCAASGRTFGAYTMGWYRQAPGKERELVAAINWSGGDTYYADSVKGRFTISRDNAKNTVYLQMNSLKPEDTAVYYCNAEPRYGTYDYWGQGTQVTVSS”, the “polyreactivity (PSR sort gate)” value is on record as “low polyreactivity”.
As for “QVQLVESGGGLVQAGGSLRLSCAASGSTFWKYAMGWYRQAPGKERELVARISRNGGSTYYADSVKGRFTISRDNAKNTVYLQMNSLKPEDTAVYYCATAYVHYVYKYDYWGQGTQVTVSS”, the entry is “high polyreactivity”.
As for “QVQLVESGGGLVQAGGSLRLSCAASGITFGRYAMGWYRQAPGKERELVAAISWSGGSTYYADSVKGRFTISRDNANNTVYLQMNRLKPEDTAVYYCNVVFRFNSFDYYYWGQGSQVTVSS”, the entry is “high polyreactivity”; as for “QVQLVESGGGLVKAGGCLRISCAASGRIFGSYAMGWYREAPGIERELVASIRSGGRTKYADSVKGRFTISRDNAKKTVYLQMNSLKPEDTAVYYCDVPIQWDYGYWGQGTQVTVSS”, “low polyreactivity”.
“QVQLVESGGGLVQAGGSLRLSCAASGFIIGRNVMGWYRQAPGKERELVAAISYSGGSTYYADSVKGRFTISRDNAKNTVYLQMNSLKPEDTAVYYCNAEAWVSQDWCQWVAYDYWGQGTQVTVSS”: the “polyreactivity (PSR sort gate)” value is reported as “high polyreactivity”.
As to “QVQLVESGGGLVQAGGSLRLICAASGSTFKGYAMGWYIQSPGKERELVAAISWPGGRTSYADSVKGRFTISRDNAKNTVYLQMNSLKPEDTAVYYCNKAWWVQKGYFFYYWEQGTQVTVSS”, the “polyreactivity (PSR sort gate)” value was “high polyreactivity”.
Regarding “QVQLVESGGGLVQAGGSLRLSCAASGRILGWNAMGWYSPAPGKVRELVAGISSSGGSTYYADSVKGRFTISRHNAKNTVNIQMNSLKPEDTAVYYCAAVVWLSSANRRYYYWGQGTQVTVSS”, the “polyreactivity (PSR sort gate)” value is recorded as “high polyreactivity”.
Consider “QVQLVESGGGLVQAGGSLRLSCAASGIIFYIYTMAWYRQAPGKERELVAAINRSGSRTYYADSVKGRFTISRDNAKNTVYLQMNSLKPEDTAVYYCAAGTGSRDDYWGQGTQVTVSS”, for which the “polyreactivity (PSR sort gate)” value is listed as “high polyreactivity”.
Turning to “QVQLVESGGGLVQAGGSLRLSCAASGSILHAYAMGWYRQAPGKEREFVAAIRRRGGSTYYADSVKGRFTISRDNAKNTVYLQMNSLKPEDTAVYYCAARFPLIGDSGGKSDYWGQGTQVTVSS”, the “polyreactivity (PSR sort gate)” value is “high polyreactivity”.
Turning to “QVQLVESGGGLVQAGGSLRLSCAASGRIFNYYAMGSYRQAPGKERDLVAAITSRGGSTYYADSVKGRFTISRDNAKNTVYLQMNSLNPEDTAVYYCNTRVWYPGTIHPVDYWGQGTQVTVSS”, the “polyreactivity (PSR sort gate)” value is given as “low polyreactivity”.
“QVQLVESGGGLVQAGGSLRLSCAASGSIFGYNAMGWYRQAPGKERELVAAISYSGGRTYYADSVKGRFTISRDNAKNTVYLQMNSLKPEDTAVYYCAKYKVGYVPSGYRYDSWGQGTQVTVSS”: the “polyreactivity (PSR sort gate)” value is recorded as “high polyreactivity”.
As for “QVQLVESGGGLVQAGGSLRLSCAASGRTFVSYVMGWYRQAPGKERELVAAIRRRGGRTYYADSVKGRFTISRDNAKNTVYLQMNSLKPEDTAVYYCAAAQPGTNAYRVGSWGQGTQVTVSS”, the entry is “high polyreactivity”.
On to “QVQLEESGGGLVQAGGSLRLSCAASGSTSTYNAMGWYRQAPGKERELVAAITESGGSTYYADSVKGRFTISRDNAKNTVYLQMNSLKPEDTAVYYCNTGYGLVDFLYGYYYWGQGTQVTVSS”, for which the “polyreactivity (PSR sort gate)” value is reported as “low polyreactivity”.
For “QVQLEESWGVLVQAGCSLRISCAASGRIFAYNAMGSYRQAPGKERELVAAISWRVGSTYYADSVKGRFSISRDNAKNTVYLQMNILKPEDTAVYYCAVGYYRFGRVLGYYWGQGTQVSVSS”, the “polyreactivity (PSR sort gate)” value is on record as “high polyreactivity”.
Consider “QVKLVESGRGLVQAGGSLRLSCAASGRIFTNNAMGRYRPATGKERELVAAINVSGGRTYYADSVKGRFTISRENAKNTVYLQMISLKPDDTAVYYCNKVKETYMDYWGQGTQVTVSS”, for which the “polyreactivity (PSR sort gate)” value was “high polyreactivity”.
Turning to “QVQLVESGGGLVQAGGSLRLSCAASGRIFGYNAMGWYRQAPGKERELVAAITNGGSTNYADSVKGRFTISRDNAKNTVYFHMNSLKPEDTAVYYCAVKWYPPGHDYWGQGTQVTVSS”, the “polyreactivity (PSR sort gate)” value is “low polyreactivity”.
As for “QVQLLESGGGLVQAGGSLRLSCAASGFIFYEYAMGWYRQAPGKERELVAAITSGGSTDYADSVKGRFTISRDNAKNTVYLQMNSLKPEDTAVYYCNADLFTGYYWYNYWGQGTQVTVSS”, the “polyreactivity (PSR sort gate)” value was “low polyreactivity”.
Regarding “QVQLVESGGGLVQAGGSLRLSCAASGSIFDIYAMAWYRQAPGKERELVADITSGGRTDYADSVKGRFTISRDNGKNTVYLQMNSLKPEDTAVYYCAADYIWDSVYWYISSYDYWGQGTKVTVSS”, the “polyreactivity (PSR sort gate)” value is given as “low polyreactivity”.
Take “QVQLVESGGGLVQAGGSLRLSCAASGSNFGFYAMGWYRQAPGKERELVAAIDSGDSTNYADSVKGRFTISRDNAKNTVYLQMNSLKPEDTAVYYCNAEAWWYFWFDYWGQGTQVTVSS”: the “polyreactivity (PSR sort gate)” value was “low polyreactivity”.
“QVQLVESGGGVVQAGGSLRLSCAGSGFIFSYYTMGWYRQAPGKERELVAAITSGGSTNYADSVKGRFTISRDNAKNTVYLQMNSLKPEDTAVYYCNALLWAWTLWGSGYDYWGQGTQVTVSS”: the “polyreactivity (PSR sort gate)” value was “low polyreactivity”.
